{
  "source": "paper PMC5419741",
  "key": {"[1]": {"test_system": "LARP1 DM15 E886 mutant (Homo sapiens), Q6PKG0-3", "test": "EMSA", "details": "5' m7Gppp cap; Competition assays: 20 mM Tris pH 8, 150 mM NaCl, 10% glycerol, 1 mM DTT, 0.5 ug BSA, 0.5 ug tRNA, 30 min on ice, native gel; EMSA as in Lahr et al. 2015 with …"}, "[2]": {"test_system": "LARP1 DM15 Y922 mutant (Homo sapiens), Q6PKG0-3", "test": "EMSA", "details": "5' m7Gppp cap; Competition assays: 20 mM Tris pH 8, 150 mM NaCl, 10% glycerol, 1 mM DTT, 0.5 ug BSA, 0.5 ug tRNA, 30 min on ice, native gel; EMSA as in Lahr et al. 2015 with …"}},
  "data": [
    {"sequence": "CCUCUUUUCCGUGGCGCCUCGGAGGCGUUCAGCUGCUUCAAG [m7Gppp-RPS6 42mer (capped TOP)]", "values": [
      {"measurement": "Kd", "setting": "[1]", "value": 8, "unit": "µM"},
      {"measurement": "Kd", "setting": "[2]", "value": 2.6, "unit": "µM"}
    ]}
  ]
}
